Results on one protein are retold here after publication PMC3577887, “Multiple Consequences of a Single Amino Acid Pathogenic RTK Mutation: The A391E Mutation in FGFR3” (PLoS ONE, 2013).

The series deals with the molecule itself. Kind of series: cross-linking; 2 mM BS3 (membrane-impermeable) on starved HEK 293 T cells transfected with 1 µg DNA, room temperature, no ligand; Western blot with anti-FGFR3; cross-linked fraction SD/(SM+SD) with the 130 kDa monomer band.

B1: FGFR3 carrying the A391E mutation (Crouzon syndrome with Acanthosis Nigricans) (receptor)
chain: ESLGTEQRVVGRAAEVPGPEPGQQEQLVFGSGDAVELSCPPPGGGPMGPTVWVKDGTGLVPSERVLVGPQRLQVLNASHEDSGAYSCRQRLTQRVLCHFSVRVTDAPSSGDDEDGEDEAEDTGVDTGAPYWTRPERMDKKLLAVPAANTVRFRCPAAGNPTPSISWLKNGREFRGEHRIGGIKLRHQQWSLVMESVVPSDRGNYTCVVENKFGSIRQTYTLDVLERSPHRPILQAGLPANQTAVLGSDVEFHCKVYSDAQPHIQWLKHVEVNGSKVGPDGTPYVTVLKTAGANTTDKELEVLSLHNVTFEDAGEYTCLAGNSIGFSHHSAWLVVLPAEEELVEADEAGSVYAGILSYGVGFFLFILVVEAVTLCRLRSPPKKGLGSPTVHKISRFPLKRQVSLESNASMSSNTPLVRIARLSSGEGPTLANVSELELPADPKWELSRARLTLGKPLGEGCFGQVVMAEAIGIDKDRAAKPVTVAVKMLKDDATDKDLSDLVSEMEMMKMIGKHKNIINLLGACTQGGPLYVLVEYAAKGNLREFLRARRPPGLDYSFDTCKPPEEQLTFKDLVSCAYQVARGMEYLASQKCIHRDLAARNVLVTEDNVMKIADFGLARDVHNLDYYKKTTNGRLPVKWMAPEALFDRVYTHQSDVWSFGVLLWEIFTLGGSPYPGIPVEELFKLLKEGHRMDKPANCTHDLYMIMRECWHAAPSQRPTFKQLVEDLDRVLTVTSTDEYLDLSAPFEQYSPGGQDTPSSSSSGDDSVFAHDLLPPAPPSSGGSRT
notes: fibroblast growth factor receptor 3, human, with the pathogenic transmembrane-domain mutation A391E; full-length receptor; the mature 130 kDa form in the plasma membrane was quantified; Made from the FGFR3/WT plasmid by site-directed mutagenesis; the mutation occurs in patients; also called FGFR3/A391E; A391E mutant; source: HEK 293 T, transiently transfected (pcDNA 3.1+, Fugene 6), on cells
Turning to B1, the stoichiometry N (as a rule, the number of molecules, sites or subunits per partner or assembly) came to 2.
